Measured values reported in patent US20160030629A1, “PEPTIDE-ALBUMIN HYDROGEL PROPERTIES AND ITS APPLICATIONS” (KANSAS STATE UNIVERSITY RESEARCH FOUNDATION, priority 2012, published 2016).

How the values were obtained:
Type in all cases: physicochemical
[1] = Comparison of material properties of different 3D cell culture hydrogels
Excerpt: In addition, for in vitro 3D cell culture, cell encapsulation and isolation are two critical steps to introduce 3D spatial support for cell growth and to recover embedded cells from the scaffold matrix for downstream studies respectively. For a convenient, effective, and safe encapsulation, cells should be added simultaneously with the initialization of hydrogelation. Therefore, mild and cyto-compatible hydrogel-forming conditions are preferred, to ensure that cells survive comfortably during gel formation. However, the sol-gel transformation of currently used peptide/protein hydrogels (i.e., puramatrix gel, hydromatix peptide hydrogel, and matrigel) is triggered by adjusting pH or temperature (Table 1).

[2] = pH of synthesized peptide in water solution
Excerpt: Peptides were synthesized on a CEM Liberty microwave peptide synthesizer (CEM Corporation, Matthews, N.C.) based on the automated base-labile 9-fluorenylmethoxycarbonyl (Fmoc) strategy with Fmoc-protected amino acids (EMD Biosciences, San Diego, Calif.). Peptides were cleaved with 95% trifluoroacetic acid (Sigma-Aldrich, Milwaukee, Wis.), 2.5% triisopropylsilane (Sigma), and 2.5% deionized water. The crude peptides were washed three times with anhydrous ether (Fisher Biotech, Fair Lawn, N.J.). After that, peptides were dissolved in acetonitrile and distilled (DI) water (50/50 v/v). The peptide solution was frozen in a −80° C. refrigerator overnight and then was freeze-dried for 48 hours by using the Labconco freeze dry system (Labconco, Kansas City, Mo.). The pH value of the peptide in water solution was 3.6. Molecular weight of the synthesized peptide was confirmed by matrix-assisted laser desorption/ionization time-of-flight mass spectroscopy on an Ultraflex II instrument (Bruker Daltronics, Billerica, Mass.). The peptide purity was confirmed by a Beckman System Gold high performance liquid chromatography (HPLC, Beckman Coulter, Inc., Fullerton, Calif.) on a phenomenex synergi 4μ Hydro-RP column (Phenomenex, Inc., Torance, Calif.) with the following gradient: 10-90% B in 20 min (A: 99.9% H2O, 0.1% TFA; B: 90% acetonitrile, 9.9% H2O, 0.1% TFA).

[3] = h9e hydrogel formation in cell culture media, serum/albumin dependence
Excerpt: This phenomenon was further exploited in other cell culture medium like Dulbecco's modified Eagle's medium (DMEM), Roswell Park Memorial Institute medium (RPMI), and Leibovitz medium (L-15). […] After screening the abundant serum compounds, we concentrated on one of the most abundant proteins in serum, albumin, which contains charged groups and several surface binding domains.

[4] = Stability of h9e-2i hydrogel and of h9e peptide solution
Experimental: The stability of h9e-2i medium hydrogel was tested. A plastic tray was placed on the bottom of the well plate. Next, 1 wt % h9e solution was mixed with 2i medium at 1:1 (v:v) ratio in a centrifuge tube and then transferred into the well plate. There was 500 μl peptide hydrogel for each well. The well plate was then placed in an incubator for 1 hour. After hydrogel was stable, another 500 μl of 2i medium was slowly added on the top of hydrogel. The top medium was replaced every other day. For mechanical testing, the top 2i medium was removed and hydrogel was transferred to a dynamic rheometer using the tray. The stability of the peptide solution was also tested using 1 wt % peptide solution stored in 4° C. refrigerator for up to 24 days. Part of the peptide solution was taken out and mixed with 2i medium with 1:1 (v:v) ratio on days 1, 6, 18 and 24.

[5] = Rheology (storage modulus, hydrogel forming rate) of h9e/BSA mixtures; settings: 3 mM h9e solution without BSA, 30 min test
Experimental: BSA and HSA were dissolved in water with 5 wt % concentration. The peptide solution and albumin solution were then mixed at different ratios for final mixtures of 1, 2, 3 mM h9e peptide with albumin from 0.1 to 5 wt %.
The storage (G′) and loss (G″) moduli of h9e hydrogels with different peptide/albumin ratios were measured on a rheometer system C-VOR 150 (Malvern instruments, Malvern, Worcestershire WR141XZ, United Kingdom) with a 20 mm diameter parallel plate test system. All rheological tests were carried out at 37° C. […]

FLIVIGSIIGPGGDGPGGD (Derivative of spider flagelliform silk protein and a trans-membrane segment of subunit IV in the dihydropyridine sensitive human muscle L-type calcium channel) [h9e, 19 unit amphiphilic self-assembling peptide]
Porosity [1]: 50-200 nm
Solution pH [1]: Neutral
pH value of the peptide in water solution [2]: 3.6
solution to hydrogel transition ([3]; MEM without serum): did not stimulate this solution to hydrogel transitions effectively
time to transform into a self-supporting hydrogel matrix ([3]; h9e peptide solution added into MEM with 10% serum): ≤ 1 min
hydrogel formation ([3]; serum-free N2B27 supplemented 2i medium with 1 wt % albumin): hydrogel formation
hydrogel formation with 2i medium after storage of solution ([4]; 1 wt % h9e solution stored at 4° C. for 24 days): could still from a hydrogel
stability of h9e solution ([4]; recent study, no details): exceed 2 months
rheological behaviour [5]: performed as Newtonian liquid
